According to patent US20210070872A1 (AGENUS, published 2021):
Numbering of substitutions follows the chain as printed.

T1: biotinylated GITR (human, UniProt Q9Y5U5 26-161, limits assumed, biotinylated (sites not given))
T1 construct: also called GITR-bio; Biotin-GITR
T1 sequence: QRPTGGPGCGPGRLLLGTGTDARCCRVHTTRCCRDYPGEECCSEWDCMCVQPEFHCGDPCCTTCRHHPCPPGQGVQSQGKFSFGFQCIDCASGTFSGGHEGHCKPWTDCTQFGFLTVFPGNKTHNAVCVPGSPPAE

B1: germline variant antibody 45 (H1916E05 / K1916E05) (antibody, V domains shown)
VH: QVQLVQSGAEVKKPGASVKVSCKGSGYTFTEYAMYWVRQAPGQGLEWIGLIRTYSGGVSYNQKFQGRVTMTVDTSISTAYMELSRLRSDDTAVYYCAKSGTVRGFAYWGQGTFVTVSS
VL: DIVMTQSPDSLAVSLGERATINCKSSQSLLNSGNQKNYLSWYHQKPGQPPKLLIYWASTRESGVPDRFTGSGSGTDFTLTISSVQAEDVAVYYCQNDYSFPYTFGQGTKLEIK
notes: IGHG1/IGKC expression vectors; measured from CHO culture supernatant; also called Antibody ID 45
B2: germline variant antibody 46 (H1916E06 / K1916E06) (antibody, V domains shown)
VH: B1 VH with G24A, I48M, Y54F, G57D, V58L, Q65R, F113L
VL: B1 VL with V84L, Y93H, F100Y
notes: IGHG1/IGKC expression vectors; measured from CHO culture supernatant; also called Antibody ID 46
B3: germline variant antibody 47 (H1916E08 / K1916E08) (antibody, V domains shown)
VH: QVQLVQSGAEVKKPGASVKVSCKASGYTFTDYAMYWVRQAPGQGMEWMGVIRTYSGGVTYNQKFRDRVTMTVDKSISTAYMELSRLRSDDTAVYYCAKSGTVRGFADWGQGTLVTVSS
VL: B1 VL with H43Q, Y93H
notes: IGHG1/IGKC expression vectors; measured from CHO culture supernatant; also called Antibody ID 47
B4: germline variant antibody 50 (H1916F03 / K1916F03) (antibody, V domains shown)
VH: B1 VH with A9T, G24A, E31D, Y54F, Q65K, G66E, T74K, F113L
VL: B1 VL with G33S, S40T, H43Q, L52M, T69S, V84L, F100Y
notes: IGHG1/IGKC expression vectors; measured from CHO culture supernatant; also called Antibody ID 50
B5: germline variant antibody 52 (H1916F05 / K1916F05) (antibody, V domains shown)
VH: B3 VH with A9T, A24G, M45L, V50L, T59S, D66E, D107Y
VL: B1 VL with S40T, H43Q, T69S, V84L, Y93H
notes: IGHG1/IGKC expression vectors; measured from CHO culture supernatant; also called Antibody ID 52
B6: germline variant antibody 54 (H1916F09 / K1916F09) (antibody, V domains shown)
VH: B1 VH with G24A, Y35H, I48M, V68A, F113L
VL: B1 VL with G33S, S40T, H43Q, Y93H
notes: IGHG1/IGKC expression vectors; measured from CHO culture supernatant; also called Antibody ID 54
B7: germline variant antibody 55 (H1916F10 / K1916F10) (antibody, V domains shown)
VH: B1 VH with A9T, G24A, E31D, S59T, F113L
VL: B1 VL with H43Q, T69S, Y93H
notes: IGHG1/IGKC expression vectors; measured from CHO culture supernatant; also called Antibody ID 55
B8: germline variant antibody 58 (H1916G04 / K1916G04) (antibody, V domains shown)
VH: B3 VH with A24G, M45L, R65K, D66G, V68A, D107Y
VL: B1 VL with T69S, Y93H, F100Y
notes: IGHG1/IGKC expression vectors; measured from CHO culture supernatant; also called Antibody ID 58
B9: germline variant antibody 59 (H1916G05 / K1916G05) (antibody, V domains shown)
VH: B3 VH with D31E, M45L, V50L, T59S, D107Y
VL: B1 VL with G33S, T69S, Y93H, F100Y
notes: IGHG1/IGKC expression vectors; measured from CHO culture supernatant; also called Antibody ID 59
B10: germline variant antibody 61 (H1917A02 / K1917A02) (antibody, V domains shown)
VH: B1 VH with A9T, G24A, Y35H, I48M, G66E, T74K, F113L
VL: B1 VL with H43Q, T69S
notes: IGHG1/IGKC expression vectors; measured from CHO culture supernatant; also called Antibody ID 61
B11: germline variant antibody 68 (H1917B01 / K1917B01) (antibody, V domains shown)
VH: B1 VH with A9T, E31G, S59T, Q65R, F113L
VL: B1 VL with S40T, H43Q, L52M, V84L, F100Y
notes: IGHG1/IGKC expression vectors; measured from CHO culture supernatant; also called Antibody ID 68
B12: germline variant antibody 71 (H1917B07 / K1917B07) (antibody, V domains shown)
VH: B3 VH with D31G, Y54F, D66G, V68A, K74T, D107Y
VL: B1 VL with G33S, S40T, H43Q, Y93H, F100Y
notes: IGHG1/IGKC expression vectors; measured from CHO culture supernatant; also called Antibody ID 71
B13: germline variant antibody 75 (H1917C09 / K1917C09) (antibody, V domains shown)
VH: B1 VH with A9T, E31G, L50V, S59T, T74K, F113L
VL: B1 VL with V84L, F100Y
notes: IGHG1/IGKC expression vectors; measured from CHO culture supernatant; also called Antibody ID 75
B14: germline variant antibody 76 (H1917C10 / K1917C10) (antibody, V domains shown)
VH: QVQLVQSGAGVKKPGASVKVSCKGSGYTFTDYAMHWVRQAPGQGLEWMGLIRTFSGDVSYNQKFRERATMTVDKSISTAYMELSRLRSDDTAVYYCAKSGTVRGFAYWGQGTLVTVSS
VL: B1 VL with H43Q, L52M, T69S, Y93H
notes: IGHG1/IGKC expression vectors; measured from CHO culture supernatant; also called Antibody ID 76
B15: germline variant antibody 79 (H1917D04 / K1917D04) (antibody, V domains shown)
VH: B3 VH with A9T, A24G, D31E, Y35H, V50L, D66E, D107Y
VL: B1 VL with S40T, L52M, T69S, V84L, F100Y
notes: IGHG1/IGKC expression vectors; measured from CHO culture supernatant; also called Antibody ID 79
B16: germline variant antibody 80 (H1917D07 / K1917D07) (antibody, V domains shown)
VH: B14 VH with A9T, G10E, G24A, D31E, L45M, E66G, A68V, K74T
VL: B1 VL with G33S, S40T, H43Q, V84L
notes: IGHG1/IGKC expression vectors; measured from CHO culture supernatant; also called Antibody ID 80
B17: germline variant antibody 85 (H1917E02 / K1917E02) (antibody, V domains shown)
VH: B3 VH with D31E, M45L, R65K, V68A, K74T, D107Y
VL: B1 VL with G33S, T69S, F100Y
notes: IGHG1/IGKC expression vectors; measured from CHO culture supernatant; also called Antibody ID 85

molecular target: T1, biotinylated GITR; experiment: BLI (Octet), biotin-GITR on streptavidin tips, antibody supernatant
Experimental: Several hundred germlined antibodies were selected based on binding kinetics as determined by Octet measurements (Octet RED 96 system; ForteBio™ Inc., Menlo Park, Calif.). The experimental procedure was configured according to the instruction manual of the instrument. Biotin-GITR was bound to Streptavidin biosensor (SA) and PBS (pH 7.4) was used as a blank control. Briefly, the interaction analyses were conducted at 30° C. in running buffer (PBS, 0.05% Tween, pH7.4). Sensor tips were pre-wet for 10 minutes in running buffer immediately prior to use, and the micro plates used in the Octet were filled with 200 μl of sample or buffer per well and agitated at 800 rpm. For the experiments, commercially available precoated SA tips were used. Biotinylated GITR was loaded onto the ForteBio SA fibers in PBS pH7.4 for 10 minutes and washed for 4 minutes. For the association phase, the ligand-coated SA tips were immersed for 5 minutes in cell culture supernatant that was diluted 1:10 in running buffer prior to the measurement. Dissociation of the antibody-antigen complex was measured in wells containing the Octet buffer alone for 5 minutes. After each run, the tips were regenerated with Glycine (10 mM, pH 2.0). Affinity, Kₒₙ and Koff were determined with Octet evaluation software v6.3 using a 1:1 binding model with local full fitting.

| Binder | Kd [nM] | koff [s⁻¹] | kon [M⁻¹ s⁻¹] |
| --- | --- | --- | --- |
| B1 | 0.562 | 0.000255 | 455000 |
| B2 | 0.619 | 0.000248 | 400000 |
| B3 | 2.06 | 0.000804 | 391000 |
| B4 | 1.01 | 0.000254 | 252000 |
| B5 | 1.07 | 0.000426 | 397000 |
| B6 | 1.26 | 0.000688 | 548000 |
| B7 | 1.27 | 0.00055 | 435000 |
| B8 | 1.58 | 0.000415 | 263000 |
| B9 | 1.04 | 0.000312 | 299000 |
| B10 | 1.83 | 0.00141 | 772000 |
| B11 | 1.55 | 0.000447 | 289000 |
| B12 | 0.241 | 0.000252 | 1.05e+06 |
| B13 | 2.92 | 0.000925 | 317000 |
| B14 | 2.72 | 0.00105 | 386000 |
| B15 | 2.87 | 0.00129 | 450000 |
| B16 | 0.696 | 0.000454 | 652000 |
| B17 | 1.28 | 0.00037 | 289000 |
